Reference: patent US20080070238

Molecular target: DNase I (UniProt P00639)
Assay: cleavage_in_vitro
Conditions: 2'-F at all nucleotides; 100 mM NaOAc, 5 mM MgCl2, 37 C, 5 min

DNase I, sequence (P00639 23-282): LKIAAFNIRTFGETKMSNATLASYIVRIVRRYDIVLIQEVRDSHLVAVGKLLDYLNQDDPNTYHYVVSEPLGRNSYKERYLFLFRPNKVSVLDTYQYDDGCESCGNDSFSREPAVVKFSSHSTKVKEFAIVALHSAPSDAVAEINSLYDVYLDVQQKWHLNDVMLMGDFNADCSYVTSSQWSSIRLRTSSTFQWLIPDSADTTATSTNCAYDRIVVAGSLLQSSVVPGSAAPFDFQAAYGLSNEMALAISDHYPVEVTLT

Sequence: NNNNNNNNNNNNNNNNNNNNNNNNNNNNNNNNNNNNNNNNCACGAGTGAAGTCTGAGCTCC [BSA-1A FNA library (primer removed)]
- activity (fold more stable than DNA): > 100
